Data from article PMC5764988.

The substances below were run against MagD, the Type II alpha-2-macroglobulin from Pseudomonas aeruginosa (Pseudomonas aeruginosa) (UniProt Q9HVT2) (assay: AUC; sedimentation velocity, 35,000 rpm, 20 °C, absorbance at 280 nm; 0.25, 0.5 and 1 mg/mL; 25 mM HEPES pH 7.5, 100 mM NaCl; c(s) analysis with Sedfit; co-purified complexes after analytical gel filtration).
Substance MagA (natural protein) has a stoichiometry N of 1. MagB (natural protein) gave a stoichiometry N of 1. Substance MagF (natural protein) has a stoichiometry N of 1.
